The text below walks through data of patent US20260027208A1 (published 2026).

Read-outs that look alike come from different tables or passages of the source.

The target of assay [1] is T1, KRAS G12D mutant peptide presented by HLA-A*11:01 on cells (human). Briefly: cell-based or functional assay.
The target in assay [2] is T1, KRAS G12D mutant peptide presented by …. Put plainly: cell-based or functional assay. The source holds these as a separate data set.

B1: TCR5 (TCR)
TCR alpha: RGEDVEQSLFLSVREGDSSVINCTYTDSSSTYLYWYKQEPGAGLQLLTYIFSNMDMKQDQRLTVLLNKKDKHLSLRIADTQTGDSAIYFCAERDAGNNRKLIWGLGTSLAVNPNIQNPDPAVYQLRDSKSSDKSVCLFTDFDSQTNVSQSKDSDVYITDKCVLDMRSMDFKSNSAVAWSNKSDFACANAFNNSIIPEDTFFPSPESSCDVKLVEKSFETDTNLNFQNLSVIGFRILLLKVAGFNLLMTLRLWSS
TCR beta: GAGVSQSPRYKVAKRGQDVALRCDPISGHVSLFWYQQALGQGPEFLTYFQNEAQLDKSGLPSDRFFAERPEGSVSTLKIQRTQQEDSAVYLCASSLEGGDTQYFGPGTRLTVLEDLKNVFPPEVAVFEPSEAEISHTQKATLVCLATGFYPDHVELSWWVNGKEVHSGVCTDPQPLKEQPALNDSRYCLSSRLRVSATFWQNPRNHFRCQVQFYGLSENDEWTQDRAKPVTQIVSAEAWGRADCGFTSESYQQGVLSATILYEILLGKATLYAVLVSALVLMAMVKRKDSRG
In assay [1], B1 showed a T cell activation EC50 (CD137 vs G12D peptide dose), TRAC/TRBC double knockout T cells of 9.4 nM and a T cell activation EC50 (CD137 vs G12D peptide dose), WT TRAC/TRBC T cells of 37.8 nM. Moreover, in assay [2], the Cmax (%) of CD137 T cell activation by G12D peptide, without knockout of TRAC and TRBC is 23.9%; the T cell activation EC50 (CD137 vs G12D peptide dose), TRAC/TRBC double knockout T cells amounted to 7.6 nM; the T cell activation EC50 (CD137 vs G12D peptide dose), WT TRAC/TRBC T cells amounted to 36.3 nM.

B2: TCR91 (TCR)
TCR alpha: AQKVTQAQTEISVVEKEDVTLDCVYETRDTTYYLFWYKQPPSGELVFLIRRNSFDEQNEISGRYSWNFQKSTSSFNFTITASQVVDSAVYFCALNEGGGSTLGRLYFGRGTQLTVWPDIQNPDPAVYQLRDSKSSDKSVCLFTDFDSQTNVSQSKDSDVYITDKCVLDMRSMDFKSNSAVAWSNKSDFACANAFNNSIIPEDTFFPSPESSCDVKLVEKSFETDTNLNFQNLSVIGFRILLLKVAGFNLLMTLRLWSS
TCR beta: MGPGLLHWMALCLLGTGHGDAMVIQNPRYQVTQFGKPVTLSCSQTLNHNVMYWYQQKSSQAPKLLFHYYDKDFNNEADTPDNFQSRRPNTSFCFLDIRSPGLGDAAMYLCATSTGRVYQPQHFGDGTRLSILEDLNKVFPPEVAVFEPSEAEISHTQKATLVCLATGFFPDHVELSWWVNGKEVHSGVCTDPQPLKEQPALNDSRYCLSSRLRVSATFWQNPRNHFRCQVQFYGLSENDEWTQDRAKPVTQIVSAEAWGRADCGFTSVSYQQGVLSATILYEILLGKATLYAVLVSALVLMAMVKRKDFGGSG
In assay [1], B2 returned a T cell activation EC50 (CD137 vs G12D peptide dose), TRAC/TRBC double knockout T cells of 14.4 nM and a T cell activation EC50 (CD137 vs G12D peptide dose), WT TRAC/TRBC T cells of 179 nM. In assay [2], this molecule yielded a Cmax (%) of CD137 T cell activation by G12D peptide, without knockout of TRAC and TRBC of 14.4%; a T cell activation EC50 (CD137 vs G12D peptide dose), TRAC/TRBC double knockout T cells of 36.5 nM; a T cell activation EC50 (CD137 vs G12D peptide dose), WT TRAC/TRBC T cells of 131 nM.

B3: TCR4 (TCR)
TCR alpha: QKEVEQDPGPLSVPEGAIVSLNCTYSNSAFQYFMWYRQYSRKGPELLMYTYSSGNKEDGRFTAQVDKSSKYISLFIRDSQPSDSATYLCAMGALNSGAGSYQLTFGKGTKLSVIPNIQNPDPAVYQLRDSKSSDKSVCLFTDFDSQTNVSQSKDSDVYITDKCVLDMRSMDFKSNSAVAWSNKSDFACANAFNNSIIPEDTFFPSPESSCDVKLVEKSFETDTNLNFQNLSVIGFRILLLKVAGFNLLMTLRLWSS
TCR beta: KAGVTQTPRYLIKTRGQQVTLSCSPISGHRSVSWYQQTPGQGLQFLFEYFSETQRNKGNFPGRFSGRQFSNSRSEMNVSTLELGDSALYLCASSLSSGTGTEAFFGQGTRLTVEDLKNVFPPEVAVFEPSEAEISHTQKATLVCLATGFYPDHVELSWWVNGKEVHSGVCTDPQPLKEQPALNDSRYCLSSRLRVSATFWQNPRNHFRCQVQFYGLSENDEWTQDRAKPVTQIVSAEAWGRADCGFTSESYQQGVLSATILYEILLGKATLYAVLVSALVLMAMVKRKDSRG
In assay [1], B3 returned a T cell activation EC50 (CD137 vs G12D peptide dose), TRAC/TRBC double knockout T cells of 4.4 nM and a T cell activation EC50 (CD137 vs G12D peptide dose), WT TRAC/TRBC T cells of 31.1 nM. Also, in assay [2], the Cmax (%) of CD137 T cell activation by G12D peptide, without knockout of TRAC and TRBC was 16%; the T cell activation EC50 (CD137 vs G12D peptide dose), TRAC/TRBC double knockout T cells was found to be 11.8 nM; the T cell activation EC50 (CD137 vs G12D peptide dose), WT TRAC/TRBC T cells came to 49.8 nM.

B4: TCR1 (TCR)
TCR alpha: GDSVTQMEGPVTLSEEAFLTINCTYTATGYPSLFWYVQYPGEGLQLLLKATKADDKGSNKGFEATYRKETTSFHLEKGSVQVSDSAVYFCALSDRVGGARLMFGDGTQLVVKPNIQNPDPAVYQLRDSKSSDKSVCLFTDFDSQTNVSQSKDSDVYITDKCVLDMRSMDFKSNSAVAWSNKSDFACANAFNNSIIPEDTFFPSPESSCDVKLVEKSFETDTNLNFQNLSVIGFRILLLKVAGFNLLMTLRLWSS
TCR beta: DIYQTPRYLVIGTGKKITLECSQTMGHDKMYWYQQDPGMELHLIHYSYGVNSTEKGDLSSESTVSRIRTEHFPLTLESARPSHTSQYLCASSEGLYNEQFFGPGTRLTVLEDLKNVFPPEVAVFEPSEAEISHTQKATLVCLATGFYPDHVELSWWVNGKEVHSGVCTDPQPLKEQPALNDSRYCLSSRLRVSATFWQNPRNHFRCQVQFYGLSENDEWTQDRAKPVTQIVSAEAWGRADCGFTSESYQQGVLSATILYEILLGKATLYAVLVSALVLMAMVKRKDSRG
For B4, in assay [1], the T cell activation EC50 (CD137 vs G12D peptide dose), TRAC/TRBC double knockout T cells turned out to be 12.2 nM and the T cell activation EC50 (CD137 vs G12D peptide dose), WT TRAC/TRBC T cells amounted to 51.1 nM. For the same molecule, in assay [2], the T cell activation EC50 (CD137 vs G12D peptide dose), TRAC/TRBC double knockout T cells was found to be 64.1 nM and the T cell activation EC50 (CD137 vs G12D peptide dose), WT TRAC/TRBC T cells is 119 nM.

B5: TCR2 (TCR)
TCR alpha: AQTVTQSQPEMSVQEAETVTLSCTYDTSENNYYLFWYKQPPSRQMILVIRQEAYKQQNATENRFSVNFQKAAKSFSLKISDSQLGDTAMYFCAFMYPSQGGSEKLVFGKGMKLTVNPNIQNPDPAVYQLRDSKSSDKSVCLFTDFDSQTNVSQSKDSDVYITDKCVLDMRSMDFKSNSAVAWSNKSDFACANAFNNSIIPEDTFFPSPESSCDVKLVEKSFETDTNLNFQNLSVIGFRILLLKVAGFNLLMTLRLWSS
TCR beta: MGPGLLCWVLLCLLGAGSVETGVTQSPTHLIKTRGQQVTLRCSSQSGHNTVSWYQQALGQGPQFIFQYYREEENGRGNFPPRFSGLQFPNYSSELNVNALELDDSALYLCASSSPGFRSYGYTFGSGTRLTVVEDLKNVFPPEVAVFEPSEAEISHTQKATLVCLATGFYPDHVELSWWVNGKEVHSGVCTDPQPLKEQPALNDSRYCLSSRLRVSATFWQNPRNHFRCQVQFYGLSENDEWTQDRAKPVTQIVSAEAWGRADCGFTSESYQQGVLSATILYEILLGKATLYAVLVSALVLMAMVKRKDSRG
As to B5, in assay [1], the T cell activation EC50 (CD137 vs G12D peptide dose), TRAC/TRBC double knockout T cells amounted to 7.3 nM and the T cell activation EC50 (CD137 vs G12D peptide dose), WT TRAC/TRBC T cells amounted to 22.2 nM. In assay [2], this molecule yielded a Cmax (%) of CD137 T cell activation by G12D peptide, without knockout of TRAC and TRBC of 42.7%; a T cell activation EC50 (CD137 vs G12D peptide dose), TRAC/TRBC double knockout T cells of 10.1 nM; a T cell activation EC50 (CD137 vs G12D peptide dose), WT TRAC/TRBC T cells of 31.6 nM.
